Assay results as given in patent US4790988A, “Method and compositions for the treatment of thrombotic episodes” (University of Florida, priority 1987, dated 1988).

Test system: thrombus in the circumflex coronary artery
Assay: Electrically induced coronary thrombus model in dogs, restoration of blood flow
Format: in vivo
Details: infused into a peripheral vein for 30 minutes at 10 microgram/kg/min; mongrel dogs
Experimental: A thrombus was introduced into the circumflex coronary artery of mongrel dogs by electrical current. Blood flow in the artery was measured by a commercially available electromagnetic flow probe. After stable blood flow for five minutes without electrical current, homogeneous recombinant human tissue plasminogen activator (Genentech) was infused into a peripheral vein for 30 minutes at a dose of 10 microgram/kg/min. In another cohort of animals, pentapeptide 6A was infused intra-arterially proximal to the occlusion at a dose of 5 micromoles/min for 20 min.

B1: tissue plasminogen activator: homogeneous recombinant human tissue plasminogen activator (Genentech) (protein, UniProt P00750 36-562, looked up)
Tissue-type plasminogen …: SYQVICRDEKTQMIYQQHQSWLRPVLRSNRVEYCWCNSGRAQCHSVPVKSCSEPRCFNGGTCQQALYFSDFVCQCPEGFAGKCCEIDTRATCYEDQGISYRGTWSTAESGAECTNWNSSALAQKPYSGRRPDAIRLGLGNHNYCRNPDRDSKPWCYVFKAGKYSSEFCSTPACSEGNSDCYFGNGSAYRGTHSLTESGASCLPWNSMILIGKVYTAQNPSAQALGLGKHNYCRNPDGDAKPWCHVLKNRRLTWEYCDVPSCSTCGLRQYSQPQFRIKGGLFADIASHPWQAAIFAKHRRSPGERFLCGGILISSCWILSAAHCFQERFPPHHLTVILGRTYRVVPGEEEQKFEVEKYIVHKEFDDDTYDNDIALLQLKSDSSRCAQESSVVRTVCLPPADLQLPDWTECELSGYGKHEALSPFYSERLKEAHVRLYPSSRCTSQHLLNRTVTDNMLCAGDTRSGGPQANLHDACQGDSGGPLVCLNDGRMTLVGIISWGLGCGQKDVPGVYTKVTNYLDWIRDNMRP
animals with coronary blood flow restored: 5 of 7 | duration reflow persisted: 20.0 ± 10.9 min | peak restored coronary blood flow (mean±SD): 22 ± 12 mL/min | time to flow restoration: 12.3 ± 9.1 min
